Measured values taken from PMC4894398, “Efficient Demyristoylase Activity of SIRT2 Revealed by Kinetic and Structural Studies” (Scientific Reports, 2015).
No end group written: not given here.

T1: SIRT2 (residues 38–356 of the full-length human SIRT2) (human, UniProt Q8IXJ6 38-356)
T1 construct: NAD-dependent protein deacylase sirtuin-2 (SIRT2), human, residues 38-356 of the full-length protein; Cloned into pET28b(+) with an N-terminal hexahistidine and sumo tag; The tag was cut off by Ulp1 and removed on a second Ni-NTA column; source: E. coli BL21 (DE3), purified (Ni-NTA, Ulp1 cleavage, second Ni-NTA, Superdex G200); not shown: His6, N-terminal, cleaved; SUMO, N-terminal, cleaved
T1 sequence (looked up): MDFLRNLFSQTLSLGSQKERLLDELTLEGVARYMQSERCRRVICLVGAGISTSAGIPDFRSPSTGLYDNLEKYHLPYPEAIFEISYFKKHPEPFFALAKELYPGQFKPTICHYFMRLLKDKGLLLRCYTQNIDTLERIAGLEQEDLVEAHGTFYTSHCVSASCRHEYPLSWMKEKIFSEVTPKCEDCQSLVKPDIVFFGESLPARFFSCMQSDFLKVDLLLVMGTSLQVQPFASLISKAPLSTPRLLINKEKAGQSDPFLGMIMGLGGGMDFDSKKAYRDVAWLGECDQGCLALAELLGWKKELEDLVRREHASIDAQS


Legend:
[1] = target: SIRT2 (residues 38–356 of the full-length human SIRT2) (human) (UniProt Q8IXJ6)
[2] = target: T1, SIRT2 (residues 38–356 of the …); assay: crystal structure; 10 mg/mL SIRT2 in 20 mM Tris, 50 mM NaCl, pH 7.5 preincubated on ice with 10 mM BHJH-TM1 for about 1 h; hanging drop, 25% PEG 3350, 0.1 M Hepes pH 7.5; 2.1 Å, two subunits in the asymmetric unit; settings: both partners purified

Km of demyristoylation of the H3K9 myristoyl peptide by SIRT2 (HPLC kinetics, 0.2 μM SIRT2, 1 mM NAD, 37°C, peptide 0.25-32 μM) [1] | binding result [2] | Molecule
0.24 µM | – | H3K9 myristoyl peptide (histone H3 Lys9 peptide bearing a myristoyl group)
– | binds | PKK(thiomyristoyl)TG (also called Myr Peptide (PKK(Tmy)TG)) [BHJH-TM1 thiomyristoyl peptide (PKK(TMy)TG)]
